T1: recombinant annexin A5, P08758
T1 chain: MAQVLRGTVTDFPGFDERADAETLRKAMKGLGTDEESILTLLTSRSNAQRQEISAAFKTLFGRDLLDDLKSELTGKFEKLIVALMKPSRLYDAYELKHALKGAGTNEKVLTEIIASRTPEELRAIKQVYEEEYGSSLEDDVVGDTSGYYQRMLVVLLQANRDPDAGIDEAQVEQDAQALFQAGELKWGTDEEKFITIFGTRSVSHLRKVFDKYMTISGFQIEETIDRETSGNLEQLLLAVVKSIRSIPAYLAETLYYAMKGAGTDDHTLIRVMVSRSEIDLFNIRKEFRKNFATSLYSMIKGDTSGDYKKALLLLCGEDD

T2: recombinant annexin A5 (UniProt P08758 1-320, Alexa Fluor 647 conjugated (the labelled copy held at a constant 20 µg/ml; position not stated); the titrated copy of the dimerisation assay is unlabelled)
T2 construct: annexin A5 (annexin V), recombinant; The products were matched from the reagents list: the Alexa Fluor 647 conjugate is likely Biolegend 640912 and the unlabelled protein likely Novus NBP1-30265; Labelled and unlabelled copies are written as one molecule for the self-association; also called annexin V; annexin A5 conjugated to Alexa Fluor 647; source: recombinant, bought (reagents list: annexin-V …)
T2 sequence (looked up): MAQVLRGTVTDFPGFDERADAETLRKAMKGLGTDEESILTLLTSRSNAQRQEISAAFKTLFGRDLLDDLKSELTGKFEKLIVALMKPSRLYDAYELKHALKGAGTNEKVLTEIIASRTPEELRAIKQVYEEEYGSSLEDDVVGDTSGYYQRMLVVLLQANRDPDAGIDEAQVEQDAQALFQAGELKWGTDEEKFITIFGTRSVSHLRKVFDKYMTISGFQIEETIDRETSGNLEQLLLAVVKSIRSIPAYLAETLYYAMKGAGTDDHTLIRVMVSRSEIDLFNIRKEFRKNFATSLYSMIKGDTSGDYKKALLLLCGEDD


Experiments:
[1] = target: T1, recombinant annexin A5, P08758; assay: MST; Nanotemper Monolith NT.115; constant annexin A5-Alexa Fluor 647 (20 µg/ml) mixed with unlabelled recombinant annexin A5 from 7×10^−6 µg/ml to 100 µg/ml, 1 h at room temperature, with 5 µM Ca2+ (CaCl2); dimerisation (dimer to monomers), used as positive control; conditions: remark: other sources report otherwise
recombinant annexin A5 = target: T2, recombinant annexin A5; assay: MST; Nanotemper Monolith NT.115; constant annexin A5-Alexa Fluor 647 (20 µg/ml) mixed with cinnamycin from 7×10^−8 mM to 1 mM, 1 h at room temperature; conditions: both partners purified

| Binder | Kd [1] | Kd (recombinant annexin A5) |
| --- | --- | --- |
| recombinant annexin A5, P08758 1-320 (natural protein, here or on the partner: Alexa Fluor 647 conjugated (the labelled copy held at a constant 20 µg/ml; position not stated); the titrated copy of the dimerisation assay is unlabelled; Alexa Fluor 647 conjugated (the labelled copy held at a constant 20 µg/ml; position not stated); the titrated copy of the dimerisation assay is unlabelled) MAQVLRGTVTDFPGFDERADAETLRKAMKGLGTDEESILTLLTSRSNAQRQEISAAFKTLFGRDLLDDLKSELTGKFEKLIVALMKPSRLYDAYELKHALKGAGTNEKVLTEIIASRTPEELRAIKQVYEEEYGSSLEDDVVGDTSGYYQRMLVVLLQANRDPDAGIDEAQVEQDAQALFQAGELKWGTDEEKFITIFGTRSVSHLRKVFDKYMTISGFQIEETIDRETSGNLEQLLLAVVKSIRSIPAYLAETLYYAMKGAGTDDHTLIRVMVSRSEIDLFNIRKEFRKNFATSLYSMIKGDTSGDYKKALLLLCGEDD | 1 µM |  |
| CRQSCSFGPFTFVCDGNTK (peptide, UniProt P29827 60-78, looked up, cinnamycin, a 19-amino-acid lantibiotic (the mature peptide cut from its precursor); source: bought: Santa Cruz Biotechnology (sc-391464)) [cinnamycin] |  | 614 µM |
